For the assay, the target named is human CD38 extracellular domain (hsCD38 ECD) used for crystallization (Homo sapiens, stabilised). Put plainly: crystal structure.

The source of these data is article PMC11784651 (mAbs, 2025).

B1: anti-CD38 E2-RecA Fab (Fab, V domains shown)
VH: QVQLVQSGAEVKKPGSSVKVSCKASGLPDATYAIGWVRQAPGQGLEWMGRIIPRLDAEHYAQKFQGRVTITADESTSTAYMELSSLRSEDTAVYYCARGLGYYLYSSYYFDIWGQGTLVTVSS
VL: not shown
Take B1: the binding result is listed as “binds”.

B2: anti-CD38 B6-D9 Fab (Fab, V domains shown)
VH: QVQLVQSGAEVKKPGSSVKVSCKASGGFFSHYIINWVRQAPGQGLEWMGRVIPVIDDAYYAQKFQGRVTITADESTSTAYMELSSLRSEDTAVYYCARSRGYYGSFYFDIWGQGTLVTVSS
VL: not shown
On to B2, for which the binding result is “binds”.
